We go through one molecule from patent US7557190.

The experiment has as its target T1, Ep-CAM/Fc (recombinant human) (human, UniProt P16422).
T1 chain: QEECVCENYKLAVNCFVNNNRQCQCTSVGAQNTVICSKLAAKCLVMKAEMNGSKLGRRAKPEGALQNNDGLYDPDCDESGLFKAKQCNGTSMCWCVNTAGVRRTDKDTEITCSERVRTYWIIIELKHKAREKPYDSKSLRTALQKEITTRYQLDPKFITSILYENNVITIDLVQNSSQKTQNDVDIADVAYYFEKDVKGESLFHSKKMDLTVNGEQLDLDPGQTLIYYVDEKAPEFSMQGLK
Briefly: SPR.

B1: H3.77/L3 (humanized 17-1A) (antibody, V domains shown)
VH: EVQLVESGGGLVQPGGSLRLSCAASGYSFTNYLIEWVRQAPGQGLEWMGVINPGSGGTNYNPSLKSRVTISADKSISTAYMELSSLRSEDTAVYFCARDGPWFAYWGQGTLVTVSS
VL: NIVMTQSPDSLAVSLGERATLSCRASENVVTYVSWYQQKPGQSPQLLIYGASNRYTGVPDRFTGSGSATDFTLTINSLEAEDAATYYCGQGYSYPYTFGGGTKLEIK
Regarding B1, the Kd (in general, the constant that tells how readily two partners part at equilibrium) is 64.9 nM.
